Laboratory results: IntAct's records for PubMed 35512704

B1: Speckle-type POZ protein (Homo sapiens), O43791 (parent)
chain: MSRVPSPPPPAEMSSGPVAESWCYTQIKVVKFSYMWTINNFSFCREEMGEVIKSSTFSSGANDKLKWCLRVNPKGLDEESKDYLSLYLLLVSCPKSEVRAKFKFSILNAKGEETKAMESQRAYRFVQGKDWGFKKFIRRDFLLDEANGLLPDDKLTLFCEVSVVQDSVNISGQNTMNMVKVPECRLADELGGLWENSRFTDCCLCVAGQEFQAHKAILAARSPVFSAMFEHEMEESKKNRVEINDVEPEVFKEMMCFIYTGKAPNLDKMADDLLAAADKYALERLKVMCEDALCSNLSVENAAEILILADLHSADQLKTQAVDFINYHASDVLETSGWKSMVVSHPHLVAEAYRSLASAQCPFLGPPRKRLKQS

Variants of: B1
Details: with fgfr4_human FGFR4, P22455

Variant	effect of a mutation on the interaction
F133L	with no effect

Variants of: B1
Details: with fumh_human FH

Variant	effect of a mutation on the interaction
F133L	with no effect

Variants of: B1
Details: with fzr1_human FZR1, Q9UM11

Variant	effect of a mutation on the interaction
F133L	with no effect

Variants of: B1
Details: with gbra6_human GABRA6, Q16445

Variant	effect of a mutation on the interaction
F133L	with no effect

Variants of: B1
Details: with gata1_human GATA1, P15976

Variant	effect of a mutation on the interaction
F133L	with no effect

Variants of: B1
Details: with p66b_human GATAD2B

Variant	effect of a mutation on the interaction
F133L	with no effect

Variants of: B1
Details: with gna11_human GNA11, P29992

Variant	effect of a mutation on the interaction
F133L	with no effect

Variants of: B1
Details: with gna13_human GNA13, Q14344

Variant	effect of a mutation on the interaction
F133L	with no effect

Variants of: B1
Details: with gnaq_human GNAQ

Variant	effect of a mutation on the interaction
F133L	with no effect

Variants of: B1
Details: with grm1_human GRM1, Q13255

Variant	effect of a mutation on the interaction
F133L	with no effect

Variants of: B1
Details: with grm3_human GRM3, Q14832

Variant	effect of a mutation on the interaction
F133L	with no effect

Variants of: B1
Details: with gsk3b_human GSK3B

Variant	effect of a mutation on the interaction
F133L	with no effect

Variants of: B1
Details: with gtpb4_human GTPBP4, Q9BZE4

Variant	effect of a mutation on the interaction
F133L	with no effect

Variants of: B1
Details: with h33_human H3-3A

Variant	effect of a mutation on the interaction
F133L	with no effect

Variants of: B1
Details: with hdac1_human HDAC1, Q13547

Variant	effect of a mutation on the interaction
F133L	with no effect

Variants of: B1
Details: with hdac3_human HDAC3, O15379

Variant	effect of a mutation on the interaction
F133L	with no effect

Variants of: B1
Details: with hgf_human HGF

Variant	effect of a mutation on the interaction
F133L	with no effect

Variants of: B1
Details: with h31_human H3C1, P68431

Variant	effect of a mutation on the interaction
F133L	with no effect

Variants of: B1
Details: with hlab_human HLA-B

Variant	effect of a mutation on the interaction
F133L	with no effect

Variants of: B1
Details: with hnf1a_human HNF1A

Variant	effect of a mutation on the interaction
F133L	with no effect

Variants of: B1
Details: with igf1r_human IGF1R

Variant	effect of a mutation on the interaction
F133L	with no effect

Variants of: B1
Details: with il7ra_human IL7R

Variant	effect of a mutation on the interaction
F133L	with no effect

Variants of: B1
Details: with int12_human INTS12, Q96CB8
Chain of int12_human INTS12, Q96CB8 (Q96CB8 whole entry): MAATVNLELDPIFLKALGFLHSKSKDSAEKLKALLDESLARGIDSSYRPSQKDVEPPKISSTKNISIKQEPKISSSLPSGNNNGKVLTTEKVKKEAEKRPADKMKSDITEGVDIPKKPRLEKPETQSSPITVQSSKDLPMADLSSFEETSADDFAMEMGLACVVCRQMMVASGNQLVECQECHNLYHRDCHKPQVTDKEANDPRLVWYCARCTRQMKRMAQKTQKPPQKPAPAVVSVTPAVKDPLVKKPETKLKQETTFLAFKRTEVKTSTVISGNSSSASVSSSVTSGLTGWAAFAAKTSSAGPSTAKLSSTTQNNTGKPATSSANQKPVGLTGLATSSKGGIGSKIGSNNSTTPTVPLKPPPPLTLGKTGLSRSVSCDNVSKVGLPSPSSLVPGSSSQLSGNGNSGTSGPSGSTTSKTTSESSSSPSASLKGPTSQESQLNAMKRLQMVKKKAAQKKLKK

Variant	effect of a mutation on the interaction
F133L	with no effect

Variants of: B1
Details: with ist1_human IST1, P53990

Variant	effect of a mutation on the interaction
F133L	with no effect

Variants of: B1
Details: with jak3_human JAK3, P52333
Chain of jak3_human JAK3, P52333 (P52333 whole entry): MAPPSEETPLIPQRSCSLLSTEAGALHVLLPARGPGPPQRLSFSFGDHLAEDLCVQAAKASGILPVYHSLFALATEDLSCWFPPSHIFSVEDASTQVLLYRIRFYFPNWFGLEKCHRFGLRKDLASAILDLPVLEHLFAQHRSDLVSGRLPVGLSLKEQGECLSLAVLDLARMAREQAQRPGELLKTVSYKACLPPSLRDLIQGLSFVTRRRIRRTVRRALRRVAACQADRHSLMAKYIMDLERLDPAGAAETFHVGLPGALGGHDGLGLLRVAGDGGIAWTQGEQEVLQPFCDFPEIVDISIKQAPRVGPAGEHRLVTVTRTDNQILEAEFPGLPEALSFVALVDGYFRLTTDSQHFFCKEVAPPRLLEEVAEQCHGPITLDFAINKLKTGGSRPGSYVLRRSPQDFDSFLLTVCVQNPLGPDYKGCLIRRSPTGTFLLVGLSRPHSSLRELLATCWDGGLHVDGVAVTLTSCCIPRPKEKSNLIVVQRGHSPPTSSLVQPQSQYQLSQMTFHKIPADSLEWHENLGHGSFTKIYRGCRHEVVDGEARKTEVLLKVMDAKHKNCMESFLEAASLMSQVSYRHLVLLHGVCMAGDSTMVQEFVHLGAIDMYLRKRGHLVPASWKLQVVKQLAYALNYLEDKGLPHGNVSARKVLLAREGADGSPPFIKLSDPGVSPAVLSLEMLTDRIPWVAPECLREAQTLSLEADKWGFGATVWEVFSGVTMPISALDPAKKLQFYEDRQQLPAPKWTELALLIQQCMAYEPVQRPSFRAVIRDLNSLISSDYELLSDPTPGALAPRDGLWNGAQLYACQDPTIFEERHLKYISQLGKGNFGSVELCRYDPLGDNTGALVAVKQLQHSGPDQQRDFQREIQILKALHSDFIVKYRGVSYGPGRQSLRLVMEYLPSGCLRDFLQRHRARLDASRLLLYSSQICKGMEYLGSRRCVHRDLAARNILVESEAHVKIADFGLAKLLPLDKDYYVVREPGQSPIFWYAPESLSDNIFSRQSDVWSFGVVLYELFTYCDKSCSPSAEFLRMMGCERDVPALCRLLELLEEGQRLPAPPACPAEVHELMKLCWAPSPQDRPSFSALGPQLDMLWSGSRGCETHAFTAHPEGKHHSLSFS

Variant	effect of a mutation on the interaction
F133L	with no effect

Variants of: B1
Details: with kat2a_human KAT2A

Variant	effect of a mutation on the interaction
F133L	with no effect

Variants of: B1
Details: with kdm5a_human KDM5A

Variant	effect of a mutation on the interaction
F133L	with no effect

Variants of: B1
Details: with kdm5c_human KDM5C

Variant	effect of a mutation on the interaction
F133L	with no effect

Variants of: B1
Details: with kdm6a_human KDM6A

Variant	effect of a mutation on the interaction
F133L	with no effect

Variants of: B1
Details: with vgfr2_human KDR

Variant	effect of a mutation on the interaction
F133L	with no effect

Variants of: B1
Details: with lims1_human LIMS1, P48059

Variant	effect of a mutation on the interaction
F133L	with no effect

Variants of: B1
Details: with maga6_human MAGEA6, P43360

Variant	effect of a mutation on the interaction
F133L	with no effect

Variants of: B1
Details: with m3k1_human MAP3K1, Q13233

Variant	effect of a mutation on the interaction
F133L	with no effect

Variants of: B1
Details: with mk10_human MAPK10, P53779

Variant	effect of a mutation on the interaction
F133L	with no effect

Variants of: B1
Details: with mk14_human MAPK14, Q16539

Variant	effect of a mutation on the interaction
F133L	with no effect

Variants of: B1
Details: with mk03_human MAPK3, P27361
Chain of mk03_human MAPK3, P27361 (P27361 whole entry): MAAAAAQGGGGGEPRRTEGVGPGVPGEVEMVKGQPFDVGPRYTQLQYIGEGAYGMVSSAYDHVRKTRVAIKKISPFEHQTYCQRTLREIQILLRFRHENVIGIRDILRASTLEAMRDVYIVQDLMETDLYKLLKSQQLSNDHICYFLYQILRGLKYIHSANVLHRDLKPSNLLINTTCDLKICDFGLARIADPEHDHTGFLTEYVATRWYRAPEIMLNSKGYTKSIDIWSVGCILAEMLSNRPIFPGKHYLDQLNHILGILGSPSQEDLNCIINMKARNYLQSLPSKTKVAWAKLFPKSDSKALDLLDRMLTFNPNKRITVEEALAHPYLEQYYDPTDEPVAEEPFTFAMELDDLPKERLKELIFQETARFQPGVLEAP

Variant	effect of a mutation on the interaction
F133L	with no effect

Variants of: B1
Details: with mk04_human MAPK4, P31152

Variant	effect of a mutation on the interaction
F133L	with no effect

Variants of: B1
Details: with mk06_human MAPK6, Q16659

Variant	effect of a mutation on the interaction
F133L	with no effect

Variants of: B1
Details: with mk07_human MAPK7, Q13164
Chain of mk07_human MAPK7, Q13164 (Q13164 whole entry, looked up): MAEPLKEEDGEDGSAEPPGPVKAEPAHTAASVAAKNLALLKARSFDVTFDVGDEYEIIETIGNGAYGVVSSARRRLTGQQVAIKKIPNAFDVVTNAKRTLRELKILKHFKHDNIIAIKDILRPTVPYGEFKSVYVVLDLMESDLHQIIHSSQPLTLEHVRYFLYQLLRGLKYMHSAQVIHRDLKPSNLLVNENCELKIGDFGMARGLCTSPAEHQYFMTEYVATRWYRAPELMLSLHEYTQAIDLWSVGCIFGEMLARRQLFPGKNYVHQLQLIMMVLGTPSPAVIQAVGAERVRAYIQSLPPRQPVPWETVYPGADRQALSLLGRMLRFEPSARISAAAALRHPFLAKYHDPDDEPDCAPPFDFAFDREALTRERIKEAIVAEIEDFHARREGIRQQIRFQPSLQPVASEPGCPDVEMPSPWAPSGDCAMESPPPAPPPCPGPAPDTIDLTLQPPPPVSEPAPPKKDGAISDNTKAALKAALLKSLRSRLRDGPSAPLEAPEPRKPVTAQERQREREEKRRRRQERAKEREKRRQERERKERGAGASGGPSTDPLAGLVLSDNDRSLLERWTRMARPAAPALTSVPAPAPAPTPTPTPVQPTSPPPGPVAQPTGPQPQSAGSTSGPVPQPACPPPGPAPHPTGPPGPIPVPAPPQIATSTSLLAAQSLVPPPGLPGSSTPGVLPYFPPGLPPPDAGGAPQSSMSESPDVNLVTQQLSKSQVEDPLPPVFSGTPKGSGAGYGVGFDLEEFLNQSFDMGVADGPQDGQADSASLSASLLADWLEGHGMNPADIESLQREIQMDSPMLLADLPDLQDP

Variant	effect of a mutation on the interaction
F133L	with no effect

Variants of: B1
Details: with sin1_human MAPKAP1, Q9BPZ7

Variant	effect of a mutation on the interaction
F133L	with no effect

Variants of: B1
Details: with mcl1_human MCL1, Q07820

Variant	effect of a mutation on the interaction
F133L	with no effect

Variants of: B1
Details: with mdm2_human MDM2, Q00987

Variant	effect of a mutation on the interaction
F133L	with no effect

Variants of: B1
Details: with mef2a_human MEF2A

Variant	effect of a mutation on the interaction
F133L	with no effect

Variants of: B1
Details: with mlh1_human MLH1, P40692

Variant	effect of a mutation on the interaction
F133L	with no effect

Variants of: B1
Details: with mtor_human MTOR

Variant	effect of a mutation on the interaction
F133L	with no effect

Variants of: B1
Details: with mybb_human MYBL2, P10244

Variant	effect of a mutation on the interaction
F133L	with no effect

Variants of: B1
Details: with myc_human MYC

Variant	effect of a mutation on the interaction
F133L	with no effect

Variants of: B1
Details: with mycn_human MYCN

Variant	effect of a mutation on the interaction
F133L	with no effect

Variants of: B1
Details: with ncoa3_human NCOA3, Q9Y6Q9
Chain of ncoa3_human NCOA3, Q9Y6Q9 (Q9Y6Q9 whole entry, looked up): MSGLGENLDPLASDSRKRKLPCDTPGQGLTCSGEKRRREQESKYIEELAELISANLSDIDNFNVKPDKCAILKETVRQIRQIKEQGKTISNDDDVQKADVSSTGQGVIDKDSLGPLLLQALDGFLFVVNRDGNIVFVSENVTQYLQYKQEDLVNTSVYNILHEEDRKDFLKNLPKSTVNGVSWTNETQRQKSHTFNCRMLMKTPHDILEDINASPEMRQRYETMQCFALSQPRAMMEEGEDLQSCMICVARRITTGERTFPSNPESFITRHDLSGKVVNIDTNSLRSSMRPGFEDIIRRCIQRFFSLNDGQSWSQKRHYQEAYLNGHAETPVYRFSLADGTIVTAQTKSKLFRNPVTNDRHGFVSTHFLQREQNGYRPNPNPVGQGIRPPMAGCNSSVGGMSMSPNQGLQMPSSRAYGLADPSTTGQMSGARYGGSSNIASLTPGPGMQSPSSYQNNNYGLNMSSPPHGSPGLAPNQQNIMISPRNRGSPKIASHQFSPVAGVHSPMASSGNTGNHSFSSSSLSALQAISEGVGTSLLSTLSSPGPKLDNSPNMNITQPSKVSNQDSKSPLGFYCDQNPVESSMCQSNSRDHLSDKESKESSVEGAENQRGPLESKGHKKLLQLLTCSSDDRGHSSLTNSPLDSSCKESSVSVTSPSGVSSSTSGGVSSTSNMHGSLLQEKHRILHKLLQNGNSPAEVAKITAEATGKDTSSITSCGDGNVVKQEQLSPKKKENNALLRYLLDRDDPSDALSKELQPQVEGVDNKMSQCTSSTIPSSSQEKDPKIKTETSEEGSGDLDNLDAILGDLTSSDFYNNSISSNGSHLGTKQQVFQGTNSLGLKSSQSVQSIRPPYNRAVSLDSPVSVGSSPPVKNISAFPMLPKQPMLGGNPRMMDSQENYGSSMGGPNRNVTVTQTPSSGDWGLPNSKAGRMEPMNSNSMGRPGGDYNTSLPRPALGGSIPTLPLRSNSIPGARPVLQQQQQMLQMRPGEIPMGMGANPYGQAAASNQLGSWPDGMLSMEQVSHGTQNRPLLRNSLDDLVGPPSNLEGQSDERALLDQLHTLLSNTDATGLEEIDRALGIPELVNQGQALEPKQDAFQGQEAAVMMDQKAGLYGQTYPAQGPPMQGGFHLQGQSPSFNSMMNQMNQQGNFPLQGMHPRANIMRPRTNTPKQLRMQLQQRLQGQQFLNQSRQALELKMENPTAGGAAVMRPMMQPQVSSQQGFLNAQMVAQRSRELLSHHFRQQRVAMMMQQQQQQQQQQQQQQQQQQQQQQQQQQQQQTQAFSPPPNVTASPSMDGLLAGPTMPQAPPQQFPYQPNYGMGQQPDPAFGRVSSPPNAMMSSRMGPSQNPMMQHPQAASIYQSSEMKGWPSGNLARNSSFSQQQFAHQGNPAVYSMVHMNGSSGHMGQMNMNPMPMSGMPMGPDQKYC

Variant	effect of a mutation on the interaction
F133L	with no effect

Variants of: B1
Details: with ikba_human NFKBIA

Variant	effect of a mutation on the interaction
F133L	with no effect

Variants of: B1
Details: with notc2_human NOTCH2, Q04721

Variant	effect of a mutation on the interaction
F133L	with no effect

Variants of: B1
Details: with nox1_human NOX1, Q9Y5S8

Variant	effect of a mutation on the interaction
F133L	with no effect

Variants of: B1
Details: with ntrk2_human NTRK2, Q16620

Variant	effect of a mutation on the interaction
F133L	with no effect

Variants of: B1
Details: with ntrk3_human NTRK3, Q16288

Variant	effect of a mutation on the interaction
F133L	with no effect

Variants of: B1
Details: with pak3_human PAK3, O75914

Variant	effect of a mutation on the interaction
F133L	with no effect

Variants of: B1
Details: with prkn_human PRKN

Variant	effect of a mutation on the interaction
F133L	with no effect

Variants of: B1
Details: with pax5_human PAX5, Q02548

Variant	effect of a mutation on the interaction
F133L	with no effect

Variants of: B1
Details: with pcbp1_human PCBP1, Q15365

Variant	effect of a mutation on the interaction
F133L	with no effect

Variants of: B1
Details: with pdcd1_human PDCD1, Q15116
Chain of pdcd1_human PDCD1, Q15116 (Q15116 whole entry): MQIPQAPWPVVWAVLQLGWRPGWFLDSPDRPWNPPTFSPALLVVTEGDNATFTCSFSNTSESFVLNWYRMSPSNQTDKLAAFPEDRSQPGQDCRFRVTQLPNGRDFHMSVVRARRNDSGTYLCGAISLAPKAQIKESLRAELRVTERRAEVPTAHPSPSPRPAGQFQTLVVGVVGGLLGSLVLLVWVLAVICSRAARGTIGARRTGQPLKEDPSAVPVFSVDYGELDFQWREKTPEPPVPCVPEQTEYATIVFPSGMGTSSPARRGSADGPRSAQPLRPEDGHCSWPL

Variant	effect of a mutation on the interaction
F133L	with no effect

Variants of: B1
Details: with pgfrb_human PDGFRB

Variant	effect of a mutation on the interaction
F133L	with no effect

Variants of: B1
Details: with pdk1_human PDK1, Q15118
Chain of pdk1_human PDK1, Q15118 (Q15118 whole entry, looked up): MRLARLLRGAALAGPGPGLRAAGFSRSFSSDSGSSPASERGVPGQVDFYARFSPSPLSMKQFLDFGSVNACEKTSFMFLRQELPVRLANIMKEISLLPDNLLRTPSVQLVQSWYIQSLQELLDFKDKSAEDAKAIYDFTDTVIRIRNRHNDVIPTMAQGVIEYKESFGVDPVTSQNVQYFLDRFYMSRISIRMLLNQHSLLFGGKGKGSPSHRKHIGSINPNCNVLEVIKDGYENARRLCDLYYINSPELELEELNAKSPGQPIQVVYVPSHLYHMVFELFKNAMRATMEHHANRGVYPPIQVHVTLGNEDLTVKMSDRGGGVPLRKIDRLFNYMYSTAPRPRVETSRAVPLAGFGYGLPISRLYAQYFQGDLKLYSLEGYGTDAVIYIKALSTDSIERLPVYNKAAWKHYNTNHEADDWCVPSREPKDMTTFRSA

Variant	effect of a mutation on the interaction
F133L	with no effect
